Results published in the Human Domainome abundance scans (Beltran et al. 2025).
± gives the uncertainty stated by the source.

B1: Lysine-specific demethylase 5C, residues 319 to 373; numbered along this chain, P41229 (parent)
chain: AQFIESYVCRMCSRGDEDDKLLLCDGCDDNYHIFCLLPPLPEIPKGVWRCPKCVM

Variants of: B1
Assay: abundance fitness (aPCA) (normalised: wild type 0, dead -1); higher = more abundant; growth selection in yeast, the domain comes from the species named
Conditions: Homo sapiens

Variant | abundance fitness
I4T | 0.201 ± 0.13
I4V | -0.019 ± 0.11
I4L | -0.338 ± 0.11
I4K | -0.033 ± 0.18
I4R | -0.3 ± 0.13
I4Q | 0.451 ± 0.2
I4M | 0.115 ± 0.14
I4G | -0.302 ± 0.2
I4P | -0.118 ± 0.15
I4A | -0.188 ± 0.13
I4H | -0.111 ± 0.17
I4E | -0.145 ± 0.19
I4C | -0.106 ± 0.24
I4Y | -0.687 ± 0.24
I4D | -0.058 ± 0.18
I4F | -0.098 ± 0.16
I4N | -0.35 ± 0.18
I4W | -0.287 ± 0.18
S6P | -0.097 ± 0.17
S6K | -0.295 ± 0.25
S6M | 0.217 ± 0.13
S6I | -0.445 ± 0.2
S6V | -0.377 ± 0.19
S6F | -0.154 ± 0.14

Variant | abundance fitness
S6C | -0.361 ± 0.19
S6H | -0.294 ± 0.23
S6Y | -0.1 ± 0.24
S6G | -0.042 ± 0.15
S6D | -0.523 ± 0.37
S6N | 0.183 ± 0.19
S6T | 0.148 ± 0.14
S6Q | -0.409 ± 0.22
S6R | 0.001 ± 0.11
S6E | -0.08 ± 0.21
S6W | -0.414 ± 0.18
S6A | -0.068 ± 0.19
Q2V | -0.153 ± 0.27
Q2Y | -0.053 ± 0.17
Q2W | -0.057 ± 0.21
Q2T | 0.203 ± 0.2
V8L | -0.243 ± 0.11
V8S | 0.007 ± 0.1
V8M | -0.052 ± 0.15
V8Y | -0.157 ± 0.2
V8T | -0.039 ± 0.15
V8D | -0.315 ± 0.19
V8C | -0.258 ± 0.16
V8W | -0.247 ± 0.16

Variant | abundance fitness
V8E | -0.266 ± 0.18
V8P | -0.12 ± 0.095
V8Q | -0.11 ± 0.15
V8A | -0.092 ± 0.097
V8R | -0.075 ± 0.098
V8G | -0.106 ± 0.12
V8N | 0.083 ± 0.22
V8H | -0.11 ± 0.12
V8I | -0.241 ± 0.14
V8F | -0.28 ± 0.24
V8K | 0.254 ± 0.19
F3M | 0.095 ± 0.17
F3H | -0.095 ± 0.2
F3G | 0.022 ± 0.14
F3W | -0.639 ± 0.28
F3S | 0.06 ± 0.1
F3A | -0.12 ± 0.12
F3Y | -0.043 ± 0.19
F3N | 0.182 ± 0.17
F3I | -0.17 ± 0.17
F3P | -0.141 ± 0.2
F3E | -0.114 ± 0.2
F3D | -0.418 ± 0.36
F3R | 0.072 ± 0.12

Variant | abundance fitness
F3L | 0.005 ± 0.1
F3V | 0.042 ± 0.11
F3T | -0.046 ± 0.17
F3K | 0.016 ± 0.14
F3C | -0.193 ± 0.14
F3Q | -0.201 ± 0.18
C12N | -0.713 ± 0.37
C12E | -0.797 ± 0.33
C12R | -0.586 ± 0.15
C12L | -0.344 ± 0.09
C12G | -0.756 ± 0.24
C12P | -0.52 ± 0.17
C12K | -0.435 ± 0.18
C12S | -0.855 ± 0.13
C12H | -0.825 ± 0.26
C12A | -0.99 ± 0.38
C12F | -0.731 ± 0.15
C12T | -0.683 ± 0.26
C12W | -0.853 ± 0.2
C12M | -0.669 ± 0.37
C12I | -1.14 ± 0.32
Y7M | 0.078 ± 0.2
Y7P | -0.073 ± 0.17
Y7L | -0.057 ± 0.1

Variant | abundance fitness
Y7T | 0.199 ± 0.12
Y7H | -0.09 ± 0.16
Y7V | -0.121 ± 0.12
Y7S | 0.139 ± 0.091
Y7I | -0.023 ± 0.18
Y7R | 0.14 ± 0.091
Y7Q | -0.052 ± 0.18
Y7E | 0.193 ± 0.19
Y7W | -0.266 ± 0.17
Y7K | 0.155 ± 0.17
Y7D | 0.173 ± 0.48
Y7A | 0.18 ± 0.13
Y7F | -0.14 ± 0.26
M11R | 0.073 ± 0.086
M11I | -0.121 ± 0.21
M11N | 0.045 ± 0.21
M11D | -0.063 ± 0.23
M11L | -0.264 ± 0.093
M11V | -0.135 ± 0.12
M11K | 0.169 ± 0.13
M11G | -0.072 ± 0.11
M11P | -0.669 ± 0.17
M11E | 0.171 ± 0.14
M11W | -0.18 ± 0.13

Variant | abundance fitness
M11S | -0.138 ± 0.11
M11Q | 0.045 ± 0.14
M11T | -0.211 ± 0.16
M11H | -0.281 ± 0.22
M11A | -0.079 ± 0.096
M11C | -0.085 ± 0.18
R10L | 0.021 ± 0.21
R10Q | -0.609 ± 0.45
R10M | -0.036 ± 0.25
R10S | -0.28 ± 0.24
R10D | -0.384 ± 0.33
R10P | -0.394 ± 0.29
R10A | -0.148 ± 0.12
R10C | -0.108 ± 0.49
R10V | -0.137 ± 0.16
R10T | 0.082 ± 0.29
R10E | -0.1 ± 0.28
R10Y | -0.175 ± 0.44
E5N | 0.275 ± 0.19
E5S | -0.125 ± 0.1
E5R | 0.046 ± 0.12
E5C | 0.046 ± 0.17
E5K | 0.036 ± 0.19
E5W | -0.451 ± 0.24

Variant | abundance fitness
E5H | -0.263 ± 0.28
E5M | 0.145 ± 0.15
E5G | -0.128 ± 0.13
E5T | -0.078 ± 0.16
E5V | -0.481 ± 0.11
E5Q | 0.02 ± 0.17
E5D | 0.054 ± 0.19
E5I | -0.283 ± 0.17
E5Y | -0.162 ± 0.18
E5P | -0.435 ± 0.21
E5L | -0.378 ± 0.12
C9G | -0.655 ± 0.15
C9R | -0.827 ± 0.16
C9H | -0.798 ± 0.28
C9L | -0.978 ± 0.19
C9A | -0.797 ± 0.13
C9Y | -0.955 ± 0.22
C9D | -0.847 ± 0.23
C9S | -0.82 ± 0.11
C9T | -0.726 ± 0.15
C9F | -0.659 ± 0.23
C9V | -0.792 ± 0.15
C9W | -0.937 ± 0.28
